Data reported in patent US20190160169A1 (JULIUS MAXIMILIANS UNIVERSIT T W RZBURG, published 2019).

Tests used:
[1] = molecular target: recombinant mature human GDF-15 protein derived from expression in E. coli (human) (UniProt Q99988); experiment: SPR (Biorad ProteOn XPR36), GDF-15 immobilised on GLC chip, antibody as analyte
[2] = molecular target: T1, recombinant mature human GDF-15 protein (derived from Baculovirus-transfected HighFive insect cells) (human, UniProt Q99988 197-308); experiment: SPR (Biorad ProteOn XPR36), KD=koff/kon
T1 construct: also called recombinant human GDF-15; GDF-15 derived from insect cell expression
T1 sequence: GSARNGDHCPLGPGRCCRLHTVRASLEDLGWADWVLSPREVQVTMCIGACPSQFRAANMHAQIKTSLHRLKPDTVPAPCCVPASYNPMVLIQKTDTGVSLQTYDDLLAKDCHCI
Text: (§1) For preparing the biosensors recombinant mature human GDF-15 protein was immobilized on flow cells 1 and 2. On one flow cell recombinant GDF-15 derived from Baculvirus-transfected insect cells (HighFive insect cells) and on the other recombinant protein derived from expression in E. coli was used. The GLC sensor chip was activated using Sulfo-NHS (N-Hydroxysulfosuccinimide) and EDC (1-Ethyl-3-[3-dimethylaminopropyl]carbodiimide hydrochloride) (Biorad ProteOn Amine Coupling Kit) according to the manufacturer's recommendation, the sensor surface was subsequently loaded with the proteins up to a density of about 600 RU (1 Ru=1 pg mm⁻²). The non-reacted coupling groups were then quenched by perfusion with 1M ethanolamine pH 8.5 and the biosensor was equilibrated by perfusing the chip with running buffer ([…], 150 mM NaCl, 3.4 mM EDTA, 0.005% Tween-20, pH 7.4, referred to as HBS150). […] The resulting sensogram was analyzed using the software ProteOn Manager version 3.0. […] For the association rate constant a value of 5.4±0.06×10⁵ M⁻¹ s⁻¹ (kₒₙ) and for the dissociation rate constant a value of 4.3±0.03×10⁻⁴ s⁻¹ (koff) could be determined (values are for the interaction of anti-human GDF-15 mAb-B1-23 with GDF-15 derived from insect cell expression).

[3] = molecular target: T1, recombinant mature human GDF-15 protein …; experiment: SPR (Biorad ProteOn XPR36), GDF-15 immobilised on GLC chip, antibody as analyte, 25 °C, 1:1 Langmuir
Text: as §1

B1: monoclonal anti-human GDF-15 mAb-B1-23 (antibody, V domains shown)
VH: QVKLQQSGPGILQSSQTLSLTCSFSGFSLSTSGMGVSWIRQPSGKGLEWLAHIYWDDDKRYNPTLKSRLTISKDPSRNQVFLKITSVDTADTATYYCARSSYGAMDYWGQGTSVTVSS
VL: DIVLTQSPKFMSTSVGDRVSVTCKASQNVGTNVAWFLQKPGQSPKALIYSASYRYSGVPDRFTGSGSGTDFTLTISNVQSEDLAEYFCQQYNNFPYTFGGGTKLEIK
notes: also called antibody B1-23; monoclonal mouse antibody GDF-15
Binder B1 has a deviation of rate constants against GDF-15 derived from insect cells [1] of 45%, a difference of affinity values against GDF-15 derived from insect cells [1] of under 2 fold and a Kd [2] of about 0.79 nM. The koff [3] was 0.00043 s⁻¹ and the kon [3] was 540000 M⁻¹ s⁻¹.
